B1: SEQ ID NO. 1050/1051: glycosyltransferase (DNA/protein SEQ ID NO) producing mogroside I from mogrol (protein, listed as Bacillus licheniformis)
chain: MRHKHIAIFNIPAHGHINPTLALTASLVKRGYRVTYPVTDEFVKAVEETGAEPLNYRSTLNIDPQQIRELMKNKKDMSQAPLMFIKEMEEVLPQLEALYENDKPDLILFDFMAMAGKLLAEKFGIEAVRLCSTYAQNEHFTFRSISEEFKIELTPEQEDALKNSNLPSFNFEDMFEPAKLNIVFMPRAFQPYGETFDERFSFVGPSLAKRKFQEKETPIISDSGRPVMLISLGTAFNAWPEFYHMCIEAFRDTKWQVIMAVGTTIDPESFDDIPENFSIHQRVPQLEILKKAELFITHGGMNSTMEGLNAGVPLVAVPQMPEQEITARRVEELGLGKHLQPEDTTAASLREAVSQTDGDPHVLKRIQDMQKHIKQAGGAEKAADEIEAFLAPAGVK
B2: SEQ ID NO. 1064/1065: glycosyltransferase (DNA/protein SEQ ID NO) producing mogroside I from mogrol (protein, listed as Barbarea vulgaris)
chain: MASAKLHQFHPSLHFVLFPFMAQGHMIPMIDIARLLAQRGVTITIVTTLHNSARFRNVLSRAIESGLPINLVHVKFPYQEAGLPEGQENIDSLDSKELTVPFFKAVNMLEEPVMKLMEEMKPRPSCLISDLCLPYTSKIAKKFNIPKIVFHGMGCFCLLCMHVLRRNLEILQNLKSDKEYFWIPNFPDRVEFTKPQVPVRINASGDWKVFLDEMVKAEETSYGVIVNTFQELEPAYVKDFQEARAGKVWSIGPVSLCNKIEADKAERGNKAAIDQDECLKWLDSKEGGSVLYVCLGSICNLPLVQLIELGLGLEESQRPFIWVIRGWEKYNELSEWISESGFEERVKDRGLLIRGWAPQVLILSHPSVGGFLTHCGWNSTLEGITSGVPLLTLPLFGDQFCNQKLIVQVLKVGVSAGVEEVMGWGEEEKIGVLVDKERVKKTVEEVMGESDDAKERRRRVKELGKLAHKAVEEGGSSHSNITLFLQDMCQLQSVGIY
B3: SEQ ID NO. 1068/1069: glycosyltransferase (DNA/protein SEQ ID NO) producing mogroside I from mogrol (protein, listed as Barbarea vulgaris)
chain: MVSEITHKSYPLHFVLFPFMAQGHMIPMVDIARLLAQRGVKITIVTTPHNAARFKNVLSRAIESGLPISIVQVKLPSQEAGLPEGNETLDSLVSMELMIHFLKAVNMLEEPVQKLFEEMSPQPSCIISDFCLPYTSKIAKKFNIPKILFHGMCCFCLLCMHILRKNREIVENLKSDKEHFVVPYFPDRVEFTRPQVPVATYVPGDWHEITEDMVEADKTSYGVIVNTYQELEPAYANDYKEARSGKAWTIGPVSLCNKVGADKAERGNKADIDQDECLKWLNSKEEGSVLYVCLGSICNLPLSQLKELGLGLEESQRPFIWVIRGWEKNKELHEWFSESGFEERIKDRGLLIKGWAPQMLILSHHSVGGFLTHCGWNSTLEGLTAGLPLLTWPLFADQFCNEKLAVQVLKAGVSAGVDQPMKWGEEEKIGVLVDKEGVKKAVEELMGESDDAKEIRRRAKELGELAHKAVEEGGSSHSNITSLLEDIMQLAQSNN
B4: SEQ ID NO. 1070/1071: glycosyltransferase (DNA/protein SEQ ID NO) producing mogroside I from mogrol (protein, listed as Barbarea vulgaris)
chain: MVSEITHKSYPLHFVLFPFMAQGHMIPMVDIARLLAQRGVKITIVTTPHNAARFENVLNRAIESGLPISIVQVKLPSQEAGLPEGNETFDSLVSMELLVPFFKSVNMLEEPVQKLFEEMSPQPSCIISDFCLPYTSKIAKKFNIPKILFHGMCCFCLLCMHVLRKNHEIVENLKSDKEHFVVPYFPDRVEFTRPQVPVATYVPGDWHEITGDMVEADKTSYGVIVNTCQELEPAYANDYKEARSGKAWTIGPVSLCNKVGADKAERGNKADIDQDECLKWLNSKEEGSVLYVCLGSICNLPLSQLKELGLGLEESQRPFIWVIRGWEKNKELLEWFSESGFEERIKDRGLLIKGWAPQMLILSHHSVGGFLTHCGWNSTLEGLTAGLPLLTWPLFADQFCNEKLAVQVLKAGVSAGVDQPMKWGEEEKIGVLVDKEGVKKAVEELMGESDDAKEIRRRAKELGELAHKAVEEGGSSHSNITSLLEDIMQLAQSNN
B5: SEQ ID NO. 1066/1067: glycosyltransferase (DNA/protein SEQ ID NO) producing mogroside I from mogrol (protein, listed as Barbarea vulgaris)
chain: MASITNHKSDPLHFVLFPFMAQGHMIPMVDIARLLAQRGLTITIVTTPHNASRFKNVLNRAIESGLPINILHVKLPYQEVGLPEGLENIDCFDSMEHMIPFFKGVNMVEESVQKLFEEMSPRPSCIISDFCLPYTSKVAKKFNIPKILFHGMCCLCLLCMHVLRKNPKILENLKSDKEHFVVPYFPDKIELTRPQVPMDTYVPGELKEFMEDLVEADKTSYGVIVNTFQELEPAYVKDYKETRSGKAWSVGPVALCNKARIDKAERGNKSDIDQDECLKWLDSKEERSVLYVCLGSICNLPLAQLKELGLGLEESTRPFIWVIRGWDKNKQLVEWFSESGFEERIKDRGLLIKGWSPQMLILSHQSVGGFLTHCGWNSTLEGITAGLPLLTWPLFADQFCNEKLVVQVLNSGVRAGVEQPMKWGEEEKIGVLVDKEGVKKAVEELMGESDEANERRRRAKELGELAHKAVEEGGSSHSNITFLLQDIMQLAQPITEPSFLVQSWHYKKALLINLLQRTGHYQSK
B6: SEQ ID NO. 1060/1061: glycosyltransferase (DNA/protein SEQ ID NO) producing mogroside I from mogrol (protein, listed as Barbarea vulgaris)
chain: MASESCHHSHCPLHFVLFPFMAQGHMIPMVDIARLLALRGATITIVTTPHNATRFNNLLSRAIESDLSINIVHVNFPYQEAGLSEGQENVDLLESMGLMVPFLKAVNMLEEPVMKLMEEMKPRPSCLISDFCLHYTSKITKKFNIPKIVFHGMGCFCLLCMHVLRRNIEILKNLKSDKEYFLVPSFPDIVEFTKPQVPVETNASGDWKEFLEAMVEAEDTSYGVIVNTFQELEPAYVKDYKEARAGKVWSIGPVSLCNKIEADKAERGNKAAIDQEECLKWLDSKEEGSVLYVCLGSICNLPLAQLKELGIGLEESQRPFIWVIRGWEKYNELSEWMLESGFEERVKDRGLLIKGWSPQMLVLSHPSVGGFLTHCGWNSTLEGITSGVPLLTWPLFADQFCNEKLVVQVLKVGVRAGVEDPMSWGEEEKVGVLLDKEGVKKAVEELMGESDDAKERRKRVKELGELAHKAVEEGGSSHSNITLFLQDISQYKSVGTF
B7: SEQ ID NO. 1062/1063: glycosyltransferase (DNA/protein SEQ ID NO) producing mogroside I from mogrol (protein, listed as Barbarea vulgaris)
chain: MASITNHKSDPLHFVLFPFMAQGHMIPMVDIARLLAQRGLTITIVTTPHNASRFKNVLNRAIESGLPINILHVKLPYQEVGLPEGLENIDCFDSMEHMIPFFKGVNMVEESVQKLFEEMSPRPSCIISDFCLPYTSKVAKKFNIPKILFHGMCCLCLLCMHVLRKNPKILENLKSDKEHFVVPYFPDKIELTRPQVPMDTYVPGELKEFMEDLVEADKTSYGVIVNTFQELEPAYVKDYKETRSGKAWSVGPVALCNKARIDKAERGNKSDIDQDECLKWLDSKEERSVLYVCLGSICNLPLAQLKELGLGLEESTRPFIWVIRGWDKNKQLVEWFSESGFEERIKDRGLLIKGWSPQMLILSHQSVGGFLTHCGWNSTLEGITAGLPLLTWPLFADQFCNEKLVVQVLNSGVRAGVEQPMKWGEEEKIGVLVDKEGVKKAVEELMGESDEANERRRRAKELGELAHKAVEEGGSSHSNITFLLQDIMQLAQSNN
B8: SEQ ID NO. 1058/1059: glycosyltransferase (DNA/protein SEQ ID NO) producing mogroside I from mogrol (protein, listed as Barbarea vulgaris)
chain: MASETTHQFHSPLHFVLFPFMAQGHMIPMVDIARILAQRGVTITIVTTPHNAARFKNVLSRAIQSGLPINLVQAKFPSQESGSLEGHENLDLLDSLGASLTFFKATNMFEKPVEKLLKEIQPRPSCIIGDMCLPYTNRIAKNLGIPKIIFHGMCCFNLLCMHIMRQNYEFLETIDSEKEYFPIPNFPERAEFTKSQLPMITYAGEFKEFLDEVTEGDNTSYGVIVNTFEELEPAYVRDYKKVKAGKVWSIGPVSLCNKVGEDKAERGNKAAIDQDECIKWLDSKEEGSVLYVCLGSICNLPLSQLKELGLGLEESQRPFIWVIRGWEKYNELAEWISESGFKERIKERGLLIRGWSPQMLILSHPAVGGFLTHCGWNSTLEGITSGVPLLTWPLFGDQFCNEKLVVQVLKVGVRSGVEESMKWGQEENIGVLVDKEGVKKAVEEVMGESDDAKERRRRVKELGQLAHKAVEEGGSSHSNITSLLQDIRQLQSKK

System: mogrol
Test: Mogroside IA and/or IE production from mogrol by glycosyltransferases expressed in S. cerevisiae, LCMS
Assay type: cell-based
Conditions: 10 μM mogrol, 2-4 days at 30° C.; identified by LCMS
Source text: DNA was obtained through gene synthesis either through Genescript, IDT, or Genewiz. For some of the cucurbitadienol synthases, cDNA or genomic DNA was obtained through 10-60 day old seedlings followed by PCR amplification using specific and degenerate primers. DNA was cloned through standard molecular biology techniques or through yeast gap repair cloning (Joska et al., 2014) into one of the following overexpression vectors: pESC-Ura, pESC-His, or pESC-LEU. Gene expression was regulated by one of the following promoters; Gall, Gal10, Tef1, or GDS. Yeast transformation was performed using Zymo Yeast Transformation Kit II. Yeast strains were grown in standard media (YPD or SC) containing the appropriate selection with 2% glucose or 2% galactose for induction of heterologous genes. Yeast strains were grown in shake flask or 96 well plates at 30° ° C., 140-250 rpm. When indicated, lanosterol synthase inhibitor, Ro 48-8071 (Cayman Chemicals) was added (50 ug/ml). Yeast samples producing mogrol precursors, mogrol and mogrosides were processed through one of the following: • Cucurbitadienol and 11-OH Cucurbitadienol: Samples cell pellets were lysed (Yeast Buster) followed by ethyl acetate extraction, drying, and resuspension in methanol. • ·Mogrol and Mogrosides: Samples cell pellets were lysed in 50% ETOH, incubated at 80° C. for 30 min, filtered, dried and resuspended in MeOH for LCMS screening.
For analyzing Mogroside IIIE & Compound 1, the LCMS method included the use of Fluoro-phenyl 2.1×100 mm column, gradient 15 to 30% B for 6 minutes, at flow rate of 0.55 ml/min. For analyzing yeast production of mogroside I during enzyme screening, the LCMS method used a Phenomenex Kinetex Polar C18, 4.6×100 mm, 2.6 μm column, and a gradient of 25% to 55% B over 3 minutes, and 100% B at 3.5 minutes with a flow rate of 1.5 ml/min. Detection by ESI source negative mode single ion monitoring of 683.4 for mogroside I and 799.4 for mogroside II.
Various glycosyltransferase proteins were expressed in S. cerevisiae grown in the presence of 10 μM mogrol for 2-4 days at 30° C., 140-250 rpm in either shake flask or 96 well plates. Glycosyltransferases leading to production of Mogroside IA (glycosylation of C24-OH position) and/or Mogroside IE (glycosylation of C3-OH position) are provided in Table 6. DNA and protein sequences for the enzymes are provided in SEQ IDs 1050-1071 (see Table 1).

Molecule | Mogroside IA | Mogroside IE
B1 | 2700609 | not detected
B2 | 76330 | 13290
B3 | 1315000 | not detected
B4 | 1764000 | not detected
B5 | 562100 | not detected
B6 | 696200 | not detected
B7 | 1816000 | not detected
B8 | 261900 | 104300

Source: patent publication US12286661B2, “Methods for making high intensity sweeteners” (Firmenich Incorporated, priority 2018, dated 2025)
